BA1 = not defined here
What was measured:
protein kinase A [1] = molecular target: T1, protein kinase A (Bos taurus, UniProt P00517); experiment: Incubation of modified glass surface with protein kinase A under cover glass (FIG. 5, Example 26); assay type: biochemical; settings: protein kinase A 10 U/mL, 30 min at 25° C.
T1 construct: purchased Sigma P26452 as printed
Procedure: (§1) FIG. 3. The peptide Leu-Arg-Arg-Ala-Ser-Leu-Gly-NH2, modified at the N-terminus with the dipeptide cysteinyl-β-alanine, was coupled to maleinimido-functionalised surfaces by a Michael addition (maleinimido-functionalised glass surface, Sigma, Silane-Prep™, S4651; as well as maleinimidobutyryl-β-alanine-functionalised, modified polypropylene membranes). The modified glass surfaces were first pre-incubated for 10 minutes using 20 mL of 100 μM ATP solution in 50 mM of sodium phosphate buffer pH 7.5. […] (Example 31). The phosphorylation of the corresponding peptides was detected using a FUJIFILM PhosphorImager. The signal intensity of the respective spot is given below the figures. […] FIG. 4. The control peptide Leu-Arg-Arg-Ala-Ala-Leu-Gly-NH2, the peptide Leu-Arg-Arg-Ala-Ala-Leu-Gly-NH2 and the synthesis raw product Leu-Arg-Arg-Ala-Ala-Leu-Gly-NH2, each modified at the N-terminus with the dipeptide cysteinyl-β-alanine, were coupled to a maleinimido-functionalised glass surface by a Michael addition (Example 1). […] After incubation for 30 min at 25° C. the phosphorylation of the corresponding peptides was detected using a FUJIFILM PhosphorImager. […] After incubation for 30 min at 25° C. the phosphorylation of the corresponding peptides was detected using a FUJIFILM PhosphorImager. […]

protein kinase A [2] = molecular target: T1, protein kinase A; experiment: Incubation of modified glass surface with different concentrations of protein kinase A (FIG. 4, Example 25); assay type: biochemical; settings: protein kinase A 1 U/mL or 10 U/mL, 30 min at 25° C.
Procedure: as §1, with “4.” for “4. The control peptide Leu-Arg-Arg-Ala-Ala-Leu-Gly-NH2, the peptide Leu-Arg-Arg-Ala-Ala-Leu-Gly-NH2 and the synthesis raw product Leu-Arg-Arg-Ala-Ala-Leu-Gly-NH2, each modified at the N-terminus with the dipeptide cysteinyl-β-alanine, were coupled to a maleinimido-functionalised glass surface by a Michael addition (Example 1).”
After drying the glass surface the quantity of radioactive phosphate incorporated in the glass-surface-bound peptides was determined using a PhosphorImager system (FLA-3000, FUJIFILM) (see FIG. 4).

## Cys-BA1-Leu-Arg-Arg-Ala-Ser-Leu-Gly-NH2 ({Cys-BA1}-LRRASLG-NH2; reading uncertain; also: printed as Cys-BA1-Leu-Arg-Arg-Ala-Ser-Leu-Gly-NH2) [compound 85]
Protein kinase A [1]
  signal intensity for the substrate amino acid sequence higher than that for the control product: 800%
Protein kinase A [2]
  signal intensity for the purified amino acid sequence higher than that for the corresponding control amino acid sequence: approximately 300 times
  signal intensity for the purified amino acid sequence higher than that for the synthesis product: 500%
